Experimental data from publication PMC4490564, “Molecular snapshots of the Pex1/6 AAA+ complex in action” (Nature Communications, 2015).

T1: Pex6 (wild type, overexpressed in yeast) (yeast, UniProt P33760 1-1030)
T1 construct: Pex6, yeast; full-length PEX6 amplified from genomic DNA, in pRS425GAL or pYES2; also called Pex6 of Δ188Pex1/Pex6 and of Pex1WB/6; source: S. cerevisiae, overexpressed (2% galactose), purified (IgG Sepharose, TEV cleavage, glycerol gradient); not shown: protein A (ProA), C-terminal, cleaved
T1 sequence (looked up): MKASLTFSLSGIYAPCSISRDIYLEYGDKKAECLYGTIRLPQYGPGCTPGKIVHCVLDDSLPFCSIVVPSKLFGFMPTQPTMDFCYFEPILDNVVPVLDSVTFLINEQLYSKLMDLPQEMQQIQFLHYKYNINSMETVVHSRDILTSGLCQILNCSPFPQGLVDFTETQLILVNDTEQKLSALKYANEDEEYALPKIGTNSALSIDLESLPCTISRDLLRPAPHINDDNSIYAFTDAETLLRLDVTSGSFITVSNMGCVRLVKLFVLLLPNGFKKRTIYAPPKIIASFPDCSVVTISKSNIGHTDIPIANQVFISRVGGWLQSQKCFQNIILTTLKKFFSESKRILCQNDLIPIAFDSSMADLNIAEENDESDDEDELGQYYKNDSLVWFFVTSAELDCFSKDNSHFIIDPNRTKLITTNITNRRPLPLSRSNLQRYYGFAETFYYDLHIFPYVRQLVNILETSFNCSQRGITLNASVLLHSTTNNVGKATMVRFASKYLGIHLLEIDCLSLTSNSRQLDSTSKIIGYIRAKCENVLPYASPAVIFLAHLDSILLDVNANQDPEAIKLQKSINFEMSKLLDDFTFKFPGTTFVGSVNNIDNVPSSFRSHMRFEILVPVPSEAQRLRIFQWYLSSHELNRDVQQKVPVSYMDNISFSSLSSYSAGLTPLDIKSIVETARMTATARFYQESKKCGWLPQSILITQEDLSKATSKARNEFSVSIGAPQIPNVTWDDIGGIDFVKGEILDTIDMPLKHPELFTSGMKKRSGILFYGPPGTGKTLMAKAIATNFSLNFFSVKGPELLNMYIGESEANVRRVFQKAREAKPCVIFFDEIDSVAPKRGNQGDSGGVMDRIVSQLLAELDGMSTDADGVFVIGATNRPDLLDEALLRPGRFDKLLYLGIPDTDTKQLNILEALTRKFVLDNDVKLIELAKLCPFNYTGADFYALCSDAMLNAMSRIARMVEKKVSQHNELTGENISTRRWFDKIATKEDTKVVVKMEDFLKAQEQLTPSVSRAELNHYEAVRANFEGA

T2: Pex1 (wild type, from HisPex1GST after thrombin cleavage) (yeast, UniProt P24004 1-1043)
T2 construct: Pex1, yeast, type II AAA+ ATPase; PEX1 amplified from genomic DNA; 1,043 amino acids (from the range printed for Δ188PEX1); also called Pex1 of Pex1/6; source: E. coli Tuner (DE3), purified together with HisPex6 (Ni-NTA agarose, glutathione agarose, eluted by thrombin cleavage); not shown: GST, C-terminal, cleaved
T2 sequence (looked up): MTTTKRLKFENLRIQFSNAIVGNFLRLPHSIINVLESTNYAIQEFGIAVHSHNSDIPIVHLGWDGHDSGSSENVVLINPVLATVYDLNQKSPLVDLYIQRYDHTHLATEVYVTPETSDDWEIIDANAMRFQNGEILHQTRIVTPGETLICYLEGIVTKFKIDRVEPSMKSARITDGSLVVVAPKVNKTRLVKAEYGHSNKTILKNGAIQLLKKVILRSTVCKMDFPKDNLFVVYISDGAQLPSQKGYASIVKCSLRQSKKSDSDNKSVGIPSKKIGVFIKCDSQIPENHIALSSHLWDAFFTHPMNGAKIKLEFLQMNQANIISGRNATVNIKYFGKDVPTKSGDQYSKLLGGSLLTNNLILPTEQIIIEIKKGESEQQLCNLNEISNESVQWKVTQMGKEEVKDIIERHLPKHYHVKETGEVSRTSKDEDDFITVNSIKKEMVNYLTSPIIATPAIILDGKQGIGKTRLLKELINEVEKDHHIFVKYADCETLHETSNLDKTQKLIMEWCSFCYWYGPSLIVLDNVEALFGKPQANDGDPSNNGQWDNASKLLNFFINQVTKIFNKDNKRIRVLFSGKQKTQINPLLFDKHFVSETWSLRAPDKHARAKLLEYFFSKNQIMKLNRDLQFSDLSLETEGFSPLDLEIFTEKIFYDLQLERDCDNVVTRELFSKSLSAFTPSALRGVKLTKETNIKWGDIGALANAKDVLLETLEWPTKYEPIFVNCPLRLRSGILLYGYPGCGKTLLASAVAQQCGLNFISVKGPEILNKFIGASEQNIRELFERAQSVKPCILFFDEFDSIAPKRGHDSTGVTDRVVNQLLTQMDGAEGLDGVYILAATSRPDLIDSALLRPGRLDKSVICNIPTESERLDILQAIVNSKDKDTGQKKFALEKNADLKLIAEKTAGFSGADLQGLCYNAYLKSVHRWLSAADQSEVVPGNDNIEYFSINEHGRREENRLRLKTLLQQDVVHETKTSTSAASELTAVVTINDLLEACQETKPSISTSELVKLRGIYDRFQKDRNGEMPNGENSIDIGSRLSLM

T3: Pex1GST (Pex1 with the C-terminal GST kept) (yeast, UniProt P24004 1-1043)
T3 construct: Pex1, yeast; PEX1 cloned into pRSFDuet-cGST (GST with a thrombin cleavage site); also called HisPex1GST; source: E. coli Tuner (DE3), purified; not shown: GST, C-terminal, kept
T3 sequence (looked up): T2 sequence (looked up)

B1: Δ188Pex1 (N-terminal truncation mutant of Pex1) (domain or fragment, yeast, UniProt P24004 189-1043, looked up)
chain: RLVKAEYGHSNKTILKNGAIQLLKKVILRSTVCKMDFPKDNLFVVYISDGAQLPSQKGYASIVKCSLRQSKKSDSDNKSVGIPSKKIGVFIKCDSQIPENHIALSSHLWDAFFTHPMNGAKIKLEFLQMNQANIISGRNATVNIKYFGKDVPTKSGDQYSKLLGGSLLTNNLILPTEQIIIEIKKGESEQQLCNLNEISNESVQWKVTQMGKEEVKDIIERHLPKHYHVKETGEVSRTSKDEDDFITVNSIKKEMVNYLTSPIIATPAIILDGKQGIGKTRLLKELINEVEKDHHIFVKYADCETLHETSNLDKTQKLIMEWCSFCYWYGPSLIVLDNVEALFGKPQANDGDPSNNGQWDNASKLLNFFINQVTKIFNKDNKRIRVLFSGKQKTQINPLLFDKHFVSETWSLRAPDKHARAKLLEYFFSKNQIMKLNRDLQFSDLSLETEGFSPLDLEIFTEKIFYDLQLERDCDNVVTRELFSKSLSAFTPSALRGVKLTKETNIKWGDIGALANAKDVLLETLEWPTKYEPIFVNCPLRLRSGILLYGYPGCGKTLLASAVAQQCGLNFISVKGPEILNKFIGASEQNIRELFERAQSVKPCILFFDEFDSIAPKRGHDSTGVTDRVVNQLLTQMDGAEGLDGVYILAATSRPDLIDSALLRPGRLDKSVICNIPTESERLDILQAIVNSKDKDTGQKKFALEKNADLKLIAEKTAGFSGADLQGLCYNAYLKSVHRWLSAADQSEVVPGNDNIEYFSINEHGRREENRLRLKTLLQQDVVHETKTSTSAASELTAVVTINDLLEACQETKPSISTSELVKLRGIYDRFQKDRNGEMPNGENSIDIGSRLSLM
notes: Pex1, yeast, gene segment corresponding to amino acids 189-1,043; source: S. cerevisiae, overexpressed (2% galactose), purified (IgG Sepharose, TEV cleavage, glycerol gradient); not shown: protein A (ProA), C-terminal, cleaved
B2: Pex6 (wild type, HisPex6) (natural protein, yeast, UniProt P33760 1-1030, looked up)
chain: T1 sequence (looked up)
notes: Pex6, yeast, type II AAA+ ATPase; PEX6 amplified from genomic DNA; also called Pex6 of Pex1/6

Legend:
Assay in all cases: negative stain EM (single-particle analysis, 3D reconstruction); purified complexes at 40-50 ug/ml, incubated with ATPγS (2.5 mM), ATP (5 mM), ADP (5 mM) or ADP-AlFx, adsorbed on carbon grids, stained with 2% uranyl acetate; threefold symmetry imposed
Conditions in all cases: both partners purified
[1] = molecular target: T1, Pex6 (wild type, overexpressed in yeast)
[2] = molecular target: T2, Pex1 (wild type, from HisPex1GST after …)
[3] = molecular target: T3, Pex1GST (Pex1 with the C-terminal GST …)

Row | binding result [1] | binding result [2] | binding result [3] | Binder
1 | binds |  |  | B1
2 |  | binds | binds | B2
